Assay results taken from patent publication US20230321189A1, “THERAPEUTIC AGENTS, PHARMACEUTICAL COMPOSITIONS, AND ASSOCIATED BIOMARKERS BASED ON TRK-B” (INSTITUTO DE MEDICINA MOLECULAR JOÃO LOBO ANTUNES, priority 2020, published 2023).
“Also recorded” adds a separate entry of the source. Where no end group is shown, it is not given here.

Legend:
[1] = tested on: bEnd.3 brain endothelioma cells; details: TAT-TrkB-6-FAM 5 μM apical; 1 h, 4 h and 24 h
Procedure: (§1) To evaluate the ability of the TAT-TrkB peptide to translocate the BEB, the inventors used a well-established in vitro model^15. It comprises a transwell system with an insert in which bEnd.3 brain endothelioma cells (ATTCC-CRL-2299, Lot. 59618606) are cultured for 9 days. In this model, the apical chamber replicates the blood compartment, while the basolateral chamber replicates the brain compartment (FIG. 7a). For these experiments, 6-FAM was fused to the N-terminal of the TAT-TrkB peptide, in order to detect the peptide by fluorescence. The TAT-TrkB-6-FAM peptide (5 μM, diluted in DMEM without phenol red) was delivered to the apical compartment. After incubation times of 1 h, 4 h and 24 h, in different inserts, medium from the apical and basolateral compartments was collected and fluorescence measured at 495 nm excitation and 517 nm emission wavelengths using the Varioskan LUX Multimode microplate reader (Thermo Scientific, Rockford, IL, USA ThermoFisher Scientific). Peptide translocation was quantified as the fluorescence detected in the basolateral compartment normalized to the sum of the fluorescence detected in both compartments. […] For these, FD4 fluorescent probe (diluted in DMEM without phenol red to a final absorbance below 0.1) was added to the apical compartment of the same inserts and incubated for 2 h. […]

[2] = tested on: bEnd.3 brain endothelioma cells; assay: BEB in vitro integrity assay (FD4 probe); assay type: in vitro ADME; details: FD4 added after each TAT-TrkB translocation assay, 2 h
Procedure: as §1

TrkB-FL [3] = target: T1, TrkB-FL (Rattus norvegicus, UniProt Q63604); assay: Calpain in vitro assay, adult rat brain cortex homogenate (Western blot); assay type: biochemical; set-up: rat cortical tissue or neuronal cultured cells were homogenized in Radio Immuno Precipitation Assay (RIPA) buffer; from tissue; host or cells: adult rat brain cortex homogenate (100 μg protein); details: peptide without linker 20 μM, m-calpain 1 or 2 EU, CaCl2 2 mM
Procedure: For calpain enzymatic assays, rat cortical tissue or neuronal cultured cells were homogenized in Radio Immuno Precipitation Assay (RIPA) buffer, containing 50 mM Tris-HCl [pH=7.5], 150 mM NaCl, 5 mM ethylenediamine tetra-acetic acid, 0.1% sodium dodecyl sulfate (SDS), 1% [v/vl] Triton X-100, protease inhibitors (Roche, Penzberg, Germany) and phosphatase inhibitors (10 mM NaF and 5 mM Na3VO4). For tissue homogenization, Vibracell VC250 Ultrasonic Liquid Processor was used (Sonics & Materials, Inc, CT, USA). Protein concentration was measured using Bio-Rad DC reagent (Bio-Rad Laboratories, Berkeley, CA, USA) after homogenates clarification by centrifugation (16,000 g, 4° C., 10 min). The purified rat m-calpain (1 or 2 enzymatic units, EU) (Calbiochem, San Diego, CA, USA) was incubated for 30 min at 25° C. in a 100 μL final volume of lysis buffer containing the homogenate protein (100 μg for rat brain cortex experiments and 65 μg for neuronal cultured cells), 2 mM of CaCl2 and TAT-TrkB peptide (5, 20 or 50 μM). […] Finally, immunoreactivity was detected using the ECL system (ECL chemiluminescence detection system, GE Healthcare), an appropriate exposure time in a ChemiDoc (Bio-Rad, XRS^+) and quantified by the digital densitometry tool of ImageJ 1.45 software (Bethesda, MD, USA). […]

TrkB-FL [4] = target: T1, TrkB-FL; assay: Aβ-driven TrkB-FL cleavage in primary neuronal cultures (Western blot); assay type: cell-based; set-up: Western-blot of neuronal cultures; endogenous in cells; host or cells: primary cortical neuronal cultures from E17-E18 embryos; details: DIV8 neuronal cultures, peptide without linker, 20 μM (1, 5, 20 and 50 μM)
Procedure: Primary neuronal cultures were prepared as routinely in the lab^6. Briefly, animals were deeply anesthetized with isoflurane ([…], Barcelona, Spain) in an anaesthesia chamber before being sacrificed by decapitation. Embryos (E17-E18) were rapidly removed from the uterus and brains were dissected and placed in cold Ca^2+- and Mg^2+-free Hank's Balanced Salt Solution (HBSS) (Gibco, Paisley, UK). Cerebral cortex was isolated, mechanically fragmented and digested with 0.025% (wt/vl) trypsin solution (Gibco, Paisley, UK) in HBSS for 15 min at 37° C. After digestion, cells were precipitated by centrifugation at 1200 rpm. The supernatant was removed and 20% Fetal Bovine Serum (FBS) (Gibco, Paisley, UK) was added to HBSS. […] To obtain single cells and avoid cellular clusters or tissue fragments, the suspension was filtered with a nylon filter (BD FalconTM Cell Strainer 70 μM, Thermo Fisher Scientific, Waltham, MA, USA) and cell density was determined by counting cells in a 0.4% trypan blue solution using a hemacytometer. […] Finally, immunoreactivity was detected using the ECL system (ECL chemiluminescence detection system, GE Healthcare), an appropriate exposure time in a ChemiDoc (Bio-Rad, XRS^+) and quantified by the digital densitometry tool of ImageJ 1.45 software (Bethesda, MD, USA). […]

[5] = listed as TAT-TrkB without a linker sequence

T1 sequence (Q63604 32-821): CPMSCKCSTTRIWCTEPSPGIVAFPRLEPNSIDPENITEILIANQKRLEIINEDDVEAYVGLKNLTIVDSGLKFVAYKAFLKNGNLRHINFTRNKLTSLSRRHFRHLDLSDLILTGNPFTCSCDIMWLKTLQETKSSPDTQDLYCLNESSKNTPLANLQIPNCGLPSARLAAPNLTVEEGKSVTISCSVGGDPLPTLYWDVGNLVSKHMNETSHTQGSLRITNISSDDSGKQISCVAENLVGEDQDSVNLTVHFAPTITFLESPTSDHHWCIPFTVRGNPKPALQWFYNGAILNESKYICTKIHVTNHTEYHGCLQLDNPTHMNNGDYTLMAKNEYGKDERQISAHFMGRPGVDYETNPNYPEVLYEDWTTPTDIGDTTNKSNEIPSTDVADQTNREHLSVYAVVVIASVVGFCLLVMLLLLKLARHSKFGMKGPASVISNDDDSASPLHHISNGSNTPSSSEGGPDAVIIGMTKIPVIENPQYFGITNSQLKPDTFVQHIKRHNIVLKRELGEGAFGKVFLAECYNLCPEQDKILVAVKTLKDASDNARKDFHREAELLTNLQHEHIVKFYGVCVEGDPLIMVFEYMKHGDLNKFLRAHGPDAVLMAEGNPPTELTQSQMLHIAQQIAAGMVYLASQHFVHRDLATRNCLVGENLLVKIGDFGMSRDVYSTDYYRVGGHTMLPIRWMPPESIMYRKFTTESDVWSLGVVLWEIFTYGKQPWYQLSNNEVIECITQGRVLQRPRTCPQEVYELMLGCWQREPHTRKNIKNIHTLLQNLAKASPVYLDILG

Sequence | translocation of the BEB [1] | BEB integrity (clearance of FD4 from the apical chamber) [2] | TrkB-FL cleavage and TrkB-ICD formation by m-calpain (TrkB-FL [3]) | TrkB-FL cleavage and TrkB-ICD formation by m-calpain (TrkB-FL [3]; [5]) | TrkB-FL cleavage and TrkB-ICD formation with Aβ incubation (TrkB-FL [4]) | TrkB-FL cleavage and TrkB-ICD formation with Aβ incubation (TrkB-FL [4]; [5])
YGRKKRRQRRRKKFGITNSQLKP [TAT-TrkB] | translocated the BEB overtime | without affecting its integrity; also recorded: negligible |  |  |  | 
YGRKKRRQRRRPQYFGITNSQLKPDTF [SEQ ID NO: 25, first version of TAT-TrkB without the linker] |  |  | not able to prevent TrkB-FL cleavage | not prevented | not able to prevent TrkB-FL cleavage | not prevented
